Entries after “also recorded” stand apart in the source; their conditions may differ.

Experimental findings from patent US20080279855A1, “Dna Replication Modulating Peptides, Nucleic Acids Encoding Them, and Their Use in Pharmaceutical Compositions” (CENTRE NATIONAL DE LA RECHERCHE SCIENTIFIQUE, priority 2004, published 2008) are described below.

For this test, the system named is DNA synthesis in Xenopus egg extracts. Description: in vitro DNA replication (DNA synthesis inhibition) assay in Xenopus egg extracts, alpha-32P dCTP incorporation. Type of test: biochemical. As to conditions: for inhibition of DNA synthesis (in words): sperm nuclei 3 ng/μl, 2 hours at room temperature. The protocol:
The capacity of a compound to inhibit DNA replication can be measured as described in Example 3, by following the general method given in Blow, J. J. & Laskey, R. A. (1986). Initiation of DNA replication in nuclei and purified DNA by a cell-free extract of Xenopus eggs. Cell 47, 577-87
FIG. 3A represents the activity of HsGeminin deletion mutants. The DNA synthesis inhibition activity of a series of HsGeminin deletion mutant proteins was measured by incubation in Xenopus egg extracts. […] DNA synthesis was measured by incorporation of a radioactive label DNA precursor (dCTP) upon 2 hours incubation at room temperature. Numbers indicate the amino-acids of the HsGeminin protein. LZ=coiled-coil domain.
In order to determine whether a homodimer form of Geminin is functional, the Inventors have tested the ability of this peptide to inhibit DNA synthesis in an in vitro DNA replication assay derived from Xenopus eggs^18.
Briefly, Xenopus egg extracts were prepared as previously described^35. Inhibition assays were carried out in a 20 μl reaction containing 3 ng/μl of sperm nuclei and the indicated amounts of proteins at 1:40 ratio (protein to extract). Replication was measured by incorporation of α^32P dCTP following 2 hours incubation at room temperature.

Take “HsGem-LZ: residues Leu110-Ala145 of human Geminin with an extra N-terminal capping Thr residue, made by Fmoc solid-phase peptide synthesis”: the “inhibition of DNA synthesis (in words)” value was “non-functional”. Also, the “interference with DNA synthesis at concentration much higher than wild-type protein” value (e.g. 320 nM) was “did not interfere with DNA synthesis”.

B1: HsGem(82-145): deletion mutant of human Geminin, residues 82-145, hexahistidine-tagged, expressed in E. coli (protein)
chain: TQESFDLMIKENPSSQYWKEVAEKRRKALYEALKENEKLHKEIEQKDNEIARLKKENKELAEVA
As for B1, the “inhibition of DNA synthesis (in words)” value is recorded as “not functional”. Also, under “listed as mutant 82-145”, the “inhibition of DNA synthesis (in words)” value is on record as “ineffective in inhibiting DNA synthesis”.

B2: wild type protein: total amino acid sequence of human Geminin, about 25 kDa negative regulator of genome replication (protein, listed as Homo sapiens)
chain: MNPSMKQKQEEIKENIKNSSVPRRTLKMIQPSASGSLVGRENELSAGLSKRKHRNDHLTSTTSSPGVIVPESSENKNLGGVTQESFDLMIKENPSSQYWKEVAEKRRKALYEALKENEKLHKEIEQKDNEIARLKKENKELAEVAEHVQYMAELIERLNGEPLDNFESLDNQEFDSEEETVEDSLVEDSEIGTCAEGTVSSSTDAKPCI
With B2, the “inhibition of DNA synthesis (in words)” value is recorded as “efficiently inhibited DNA synthesis”.

B3: HsGem(80-212): form of HsGeminin (residues 80-212) with the coiled-coil domain plus the entire carboxy-terminal part (protein)
chain: GVTQESFDLMIKENPSSQYWKEVAEKRRKALYEALKENEKLHKEIEQKDNEIARLKKENKELAEVAEHVQYMAELIERLNGEPLDNFESLDNQEFDSEEETVEDSLVEDSEIGTCAEGTVSSSTDAKPCI
On to B3, for which the “inhibition of DNA synthesis (in words)” value is “keep the ability of Geminin to inhibit DNA synthesis; also recorded: Full inhibition”. The “inhibition of DNA synthesis (in words)” value (listed as HsGeminin (residues 80-212)) is given as “effective in inhibiting DNA synthesis”.

B4: HsGem(82-160): deletion mutant of human Geminin, residues 82-160, hexahistidine-tagged, expressed in E. coli (protein)
chain: TQESFDLMIKENPSSQYWKEVAEKRRKALYEALKENEKLHKEIEQKDNEIARLKKENKELAEVAEHVQYMAELIERLNG
modifications: hexahistidine tag
notes: deletion mutant of human Geminin, residues 82-160, hexahistidine-tagged, expressed in E. coli
Take B4: the “inhibition of DNA synthesis (in words)” value is “inhibited DNA synthesis, although less efficiently compared to the wild-type protein”.

B5: HsGem(76-160): deletion mutant of human Geminin, residues 76-160, hexahistidine-tagged, expressed in E. coli (protein)
chain: KNLGGVTQESFDLMIKENPSSQYWKEVAEKRRKALYEALKENEKLHKEIEQKDNEIARLKKENKELAEVAEHVQYMAELIERLNG
modifications: hexahistidine tag
notes: deletion mutant of human Geminin, residues 76-160, hexahistidine-tagged, expressed in E. coli
As for B5, the “inhibition of DNA synthesis (in words)” value was “Full inhibition”.
